Here are results for four substances from patent US7238711.

The term Kd denotes the equilibrium constant for the complex coming apart. Low values mean tighter binding, high ones weaker binding.

Assay [1] deals with CXCR4 (human) (UniProt P61073). Kind of assay: cell-based or functional assay.
Assay [2] addresses chemokine receptors on the surface of Jurkat cells. Nature of the assay: biotinylated peptide at 100 µM on 10^6 Jurkat cells, streptavidin-peroxidase, TMB.
Assay [3] has as its target chemokine receptors on THP-1 cells. Kind of assay: biotinylated peptide at 100 µM on 4×10^5 THP-1 cells, streptavidin-peroxidase, TMB.
Assay [4] concerns the target chemokine receptors on the surface of Jurkat cells. Nature of the assay: biotinylated peptide on cells, streptavidin-peroxidase.
The target in assay [5] is chemokine receptors on THP-1 cells. Nature of the assay: biotinylated peptide on THP-1 cells, streptavidin-peroxidase, Scatchard; with and without 100 µM unlabeled peptide 3 (printed as affinity constant).

Sequence of CXCR4 (human) (P61073 whole entry): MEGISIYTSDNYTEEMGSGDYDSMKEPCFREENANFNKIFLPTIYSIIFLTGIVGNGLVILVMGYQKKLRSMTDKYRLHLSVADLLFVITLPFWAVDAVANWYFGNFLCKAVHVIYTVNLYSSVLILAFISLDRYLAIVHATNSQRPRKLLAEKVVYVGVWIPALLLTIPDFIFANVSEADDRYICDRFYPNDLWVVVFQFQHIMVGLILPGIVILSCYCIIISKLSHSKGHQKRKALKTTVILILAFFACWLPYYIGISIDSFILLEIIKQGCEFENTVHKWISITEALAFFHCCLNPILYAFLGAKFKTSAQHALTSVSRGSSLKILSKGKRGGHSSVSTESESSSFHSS

Take KLK (peptide): the percentage inhibition of SDF1α induced THP-1 migration at 100 µM in assay [1] was found to be 87%.

Take gp120:V3(BaL) (peptide): in assay [2], the ΔA450 nm, alone was 0.167 ΔA450 nm and the ΔA450 nm, specific binding is < 0 ΔA450 nm. In addition, in assay [3], the ΔA450 nm, alone was 0.642 ΔA450 nm and the ΔA450 nm, specific binding was 0.535 ΔA450 nm.

For the substance gp120:V3(IIIb) (peptide), in assay [4], the fold specific binding against THP-1 cells is 5 fold. In addition, the results for the ΔA450 nm, alone in assay [2] and in assay [3] were 0.878 ΔA450 nm and 0.268 ΔA450 nm, respectively. For the same substance, the ΔA450 nm, specific binding is 0.689 ΔA450 nm in assay [2] and 0.137 ΔA450 nm in assay [3].

The substance “N-terminal biotin-labeled peptide 2(1-15)[MCP-1]” gave a Kd in assay [5] of 250 nM.
